# According to patent US20160250307A1 (IMMATICS BIOTECHNOLOGIES, published 2016):
# Biological target: HLA-A*02 (human)
# Test: UV-ligand exchange, anti-b2m ELISA; grade: exchange yield >=75%
row,Binder,peptide exchange yield [%]
1,KLAEIVKQV (also called MAPKAPK5-001),≥ 75
2,LLYGHTVTV (also called SLC35B2-001),≥ 75
3,SLIDQFFGV (also called USP14-001),≥ 75
4,GLIDTETAMKAV (also called HSD11B1-001),≥ 75
5,ALADLTGTVV (also called NCST-001),≥ 75
6,VMAPFTMTI (also called APOB-003),≥ 75
7,SLLGGNIRL (also called ACSL3-001),≥ 75
8,ALLKVNQEL (also called SAMM-001),≥ 75
9,SLLEEFDFHV (also called USO-001),≥ 75
10,ALVDTLKFV (also called APOB-002),≥ 75
11,GVMAGDIYSV (also called ADF-012),≥ 75
12,ALASVIKEL (also called IFT81-001),≥ 75
13,ALVEQGFTV (also called APOB-001),≥ 75
14,YLITSVELL (also called ACSL4-001),≥ 75
15,FLAELAYDL (also called GPC3-001),≥ 75
16,KLQDFSDQL (also called APOB-004),≥ 75
17,VLTEFTREV (also called IPO9-001),≥ 75
18,FLFNTENKLLL (also called IDI1-001),≥ 75

# Biological target: HLA-A*02 (human)
# Test: UV-ligand exchange, anti-b2m ELISA; grade: exchange yield >=20%
row,Binder,peptide exchange yield [%]
1,FLDTPIAKV,20 to 50
2,TLAQQPTAV,20 to 50
3,SLVGDIGNVNM,20 to 50
4,RLMSALTQV,20 to 50
5,YLSQAADGAKVL,20 to 50
6,KLLAATVLLL,20 to 50
7,RVPPPPQSV,20 to 50
8,LTDITKGV,20 to 50
9,GLAEELVRA,20 to 50
10,RIISGLVKV,20 to 50
11,YLGEEYVKA,20 to 50
12,FLYPEKDEPT,20 to 50
13,RLIDRIKTV,20 to 50
14,FTIPKLYQL,20 to 50
15,YLYNNEEQVGL,20 to 50
16,FLWTEQAHTV,20 to 50
17,RLLAKIICL,20 to 50
18,TMAKESSIIGV,20 to 50
19,RLYTMDGITV,20 to 50
20,FLASESLIKQI,20 to 50
21,KIAGTNAEV,20 to 50
22,KQMEPLHAV,20 to 50
23,AMPPPPPQGV,20 to 50
24,RLIEEIKNV,20 to 50
25,FLIAEYFEHV,20 to 50
26,RIPAYFVTV,20 to 50
27,FVLPLLGLHEA,20 to 50
28,TLITDGMRSV,20 to 50

# Biological target: HLA-A*02 (human)
# Test: UV-ligand exchange, anti-b2m ELISA; grade: exchange yield >=50%
row,Binder,peptide exchange yield [%]
1,AVLGPLGLQEV (also called THT-001),50 to 75
2,ALASVIKEL (also called IFT81-001),50 to 75

# Biological target: HLA-A*02 (human)
# Test: UV-ligand exchange, anti-b2m ELISA; grade: exchange yield >=75%
# Remark: another data set of the same source
row,Binder,peptide exchange yield [%]
1,KLAEIVKQV (also called MAPKAPK5-001),≥ 75
2,LLYGHTVTV (also called SLC35B2-001),≥ 75
3,GLIDTETAMKAV (also called HSD11B1-001),≥ 75
4,ALADLTGTVV (also called NCST-001),≥ 75
5,VMAPFTMTI (also called APOB-003),≥ 75
6,SLLGGNIRL (also called ACSL3-001),≥ 75
7,ALLKVNQEL (also called SAMM-001),≥ 75
8,SLLEEFDFHV (also called USO-001),≥ 75
9,KLLDNWDSV,≥ 75
10,ALVDTLKFV (also called APOB-002),≥ 75
11,GVMAGDIYSV (also called ADF-012),≥ 75
12,ALVEQGFTV (also called APOB-001),≥ 75
13,YLITSVELL (also called ACSL4-001),≥ 75
14,FLAELAYDL (also called GPC3-001),≥ 75
15,KLQDFSDQL (also called APOB-004),≥ 75
16,VLTEFTREV (also called IPO9-001),≥ 75
17,FLFNTENKLLL (also called IDI1-001),≥ 75

# Biological target: HLA-A*02 (human)
# Test: UV-ligand exchange, anti-b2m ELISA; grade: exchange yield 50%-75%
row,Binder,peptide exchange yield [%]
1,AVLGPLGLQEV (also called THT-001),50 to 75
2,VLADFGARV (also called C1QTNF3-001),50 to 75
3,GVYDGEEHSV (also called MAGEB2-001),50 to 75
